The text below walks through data of the emibetuzumab library of Makowski et al. (2022).

B1: VH:VL chains; a variant is named by its letters at X, in order (parent)
chain 1: QVQLVQSGAEVKKPGASVKVSCKASGYTFTDYXMHWVRQAPGQGLEWMGXVNPNXXXTTYNQKFEGRVTMTTDTSTSTAYMELRSLRSDDTAVYYCARXNXLDXWGQGTTVTVSS
chain 2: DIQMTQSPSSLSASVGDRVTITCSVSSSVSSIYLHWYQQKPGKAPKLLIYSTSNLASGVPSRFSGSGSGTDFTLTISSLQPEDFATYYCQVYSGYPLTFGGGTKVEIK

This series covers variants of B1. Nature of the series: yeast display scFab, FACS + sequencing. A digest of the protocol:
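Non-specific binding was called from deep sequencing of sorted yeast cells displaying a heavy-chain CDR mutant scFab library. Cells labelled with anti-Myc and biotinylated ovalbumin (260 μg/mL in PBSB, 3 h, room temperature) or soluble membrane proteins (130 μg/mL, 20 min on ice) were FACS-sorted, collecting the top 25% and bottom 10% of binders from two replicates. A sequence was positive when present in ≥3 of 4 pooled positive samples and absent from all negatives, and negative under the converse rule.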
Turning to FRGGGSGV, the non-specific binding call was “binds”.

As for FRGGGSGS, the non-specific binding call is listed as “binds”. For the variant FRGGGSGF, the non-specific binding call is “binds”. With YRGGASWV, the non-specific binding call is “binds”. In the case of VRGGSDGY, the non-specific binding call is reported as “no binding”.

DRERGDGY: the non-specific binding call is “no binding”. In the case of YRGGDSSY, the non-specific binding call was “no binding”. Regarding VRERGSWV, the non-specific binding call is “binds”. Turning to VRERGSWD, the non-specific binding call is on record as “binds”. Then YRGGDDSV, with “no binding”; and YRGGDDSS, with “no binding”. The result for YRGAGAWA reads “binds”; that for YRGAGAWS, “binds”. Regarding YRGAGAWV, the non-specific binding call is recorded as “binds”. The result for YRGGDAAF reads “no binding”; that for SRGGGVGY, “binds”; that for YRGGGYLV, “no binding”. Turning to FRGADFGD, the non-specific binding call was “binds”.

In the case of VRERGDAS, the non-specific binding call is reported as “binds”. Take VRERGDAA: the non-specific binding call was “no binding”. Regarding YRGANSVF, the non-specific binding call is reported as “binds”. Consider YRGGAAAA, for which the non-specific binding call is reported as “binds”. The result for YRGGGDVS reads “binds”; that for YRGAGSAD, “binds”.

On to FRGGGDWD, for which the non-specific binding call is given as “no binding”. FRGEGALV: the non-specific binding call was “binds”. Then YRGAGSGD, with “binds”; and YRGAGSGV, with “binds”; and YRGAGSGY, with “binds”. Turning to YRGAGSGS, the non-specific binding call is reported as “binds”. For FRGEGSVS, the non-specific binding call is recorded as “binds”. Turning to VRGAGSWV, the non-specific binding call is listed as “binds”. In the case of YRGKAAVD, the non-specific binding call is listed as “binds”.

In the case of FRGESAGV, the non-specific binding call is reported as “binds”. Then FRGESAGS, with “binds”. On to FRGESAGA, for which the non-specific binding call is reported as “binds”.

As to VRGGGDAA, the non-specific binding call is reported as “no binding”. The result for YRERGAVV reads “binds”.

On to VRGGDDWF, for which the non-specific binding call is recorded as “no binding”. Regarding VRGGDDWA, the non-specific binding call was “no binding”. The result for VRGGGDGY reads “no binding”; that for YRGAGFVD, “binds”. The result for YREKGSLD reads “binds”; that for FRGGDSAD, “binds”; that for YRGEGSAS, “binds”.

Regarding VRGKAFVV, the non-specific binding call was “binds”.

For YRGGSSGY, the non-specific binding call is reported as “binds”. Take VRERGDWV: the non-specific binding call is “no binding”.

As to VRERGDWF, the non-specific binding call is reported as “no binding”. The result for YRERGAGF reads “binds”. On to YRGKAFGV, for which the non-specific binding call is on record as “binds”.

As to YRGGDYLV, the non-specific binding call is “no binding”.

Turning to VRGGDDVF, the non-specific binding call is “no binding”.

As to FRGEGSGV, the non-specific binding call is recorded as “binds”. For ARGEGSGV, the non-specific binding call is listed as “no binding”. For the variant YRGASSWV, the non-specific binding call is on record as “binds”. On to YRGGGDGF, for which the non-specific binding call is on record as “no binding”. As for YRGAAASS, the non-specific binding call is recorded as “no binding”. Turning to FRGKDASA, the non-specific binding call is “no binding”. YRGGTFGF: the non-specific binding call is recorded as “binds”. On to YRGGGSGS, for which the non-specific binding call is reported as “binds”.

On to VRERGSSF, for which the non-specific binding call is reported as “no binding”.

With FRERGAAA, the non-specific binding call is “binds”. YRGAGYAA: the non-specific binding call is recorded as “binds”. As to FRERNAAA, the non-specific binding call was “binds”. Turning to YRGGSDVA, the non-specific binding call was “no binding”.

As to SRGGAAWA, the non-specific binding call is “binds”.

For the variant VRGGGFGD, the non-specific binding call was “binds”. Then VRGGGFGV, with “no binding”; and SRGGGALD, with “no binding”; and YRGGGDWV, with “no binding”. For YRGEASVD, the non-specific binding call is “binds”.

VRGGDAVS: the non-specific binding call is given as “no binding”. As for VRGGDAVA, the non-specific binding call is recorded as “no binding”. The result for YRGGDDLV reads “no binding”.

Turning to YRGGDDLY, the non-specific binding call is given as “no binding”. Consider DRGGSSAA, for which the non-specific binding call is given as “no binding”. As to FRGGSAVD, the non-specific binding call is given as “binds”. Then FRGGSAVY, with “binds”; and YRERSDVS, with “binds”. On to YRGGGDSV, for which the non-specific binding call is “no binding”. Then FRERGDGA, with “binds”; and ARERGDGY, with “no binding”.

Regarding DRGGDSLD, the non-specific binding call is “no binding”. In the case of YRGAGAGA, the non-specific binding call is recorded as “binds”. The result for YRGAGAGV reads “binds”. As to YRGAGAGS, the non-specific binding call is recorded as “binds”. For the variant YRERGSAA, the non-specific binding call is given as “binds”.

For YRERGSAV, the non-specific binding call is “binds”.

As to YRERGSAD, the non-specific binding call is listed as “binds”. Regarding VRGAGAWV, the non-specific binding call is “binds”.

On to YRGANVVY, for which the non-specific binding call is “binds”.

With FRGGSAGD, the non-specific binding call was “binds”. For FRGGSSGV, the non-specific binding call was “binds”. As for FRGGSSGS, the non-specific binding call was “binds”. Turning to FRGGGSVS, the non-specific binding call was “binds”. As for YRGAASAV, the non-specific binding call is reported as “binds”.

For YRGESSGF, the non-specific binding call is “binds”.

As to SRGANAWD, the non-specific binding call is recorded as “binds”.

On to FRERGAVV, for which the non-specific binding call is listed as “binds”. With FRGGGSSA, the non-specific binding call is “binds”. With DRGEGAGD chain 1 G42D, the non-specific binding call was “no binding”. YRERGALA: the non-specific binding call is recorded as “binds”. As to YRERGALS, the non-specific binding call is listed as “binds”.

Turning to FRERGSAD, the non-specific binding call is recorded as “binds”. Take FRERGSAV: the non-specific binding call is on record as “binds”. Then VRGGGAAV, with “no binding”; and VRGGGAAY, with “no binding”. Consider YRERAAGY, for which the non-specific binding call is “binds”.

As to YRERSSLD, the non-specific binding call was “binds”. For ARGKASSY, the non-specific binding call was “no binding”. Regarding VRGEGSWD, the non-specific binding call was “binds”.

Turning to DRGGDDWY, the non-specific binding call is “no binding”. Then DRGGDDWV, with “no binding”; and FRERGYGA, with “binds”. The result for DRGGDSSS reads “no binding”; that for DRGGDDLV, “no binding”. Take YRGAGAAA: the non-specific binding call is “binds”.

As to YRGAGAAD, the non-specific binding call is on record as “binds”. As for FRGGGVGV, the non-specific binding call is on record as “binds”.

On to FRGGSVGY, for which the non-specific binding call is on record as “binds”. VRGGDAAS: the non-specific binding call is recorded as “no binding”.

As to YRGEGAWV, the non-specific binding call is listed as “binds”.
